# Measured values from patent US20090149339A1 (published 2009).
# Ends that are not written are not given here. * marks the point of attachment. Biotin = O=C1N[C@H]2[C@H](CS[C@H]2CCCCC(=O)*)N1
# How the values were obtained:
# [1] = target: T1, GST-KIAA0316 PDZ domain fusion protein (KIAA0316 AA197-284; PDZ domain 1 of 1) (UniProt P08515 1-218 = GST); assay: A/G assays
# T1 construct: also called K316
# [2] = target: T2, GST-KIAA0559 PDZ domain fusion protein (KIAA0559 AA766-870; PDZ1 of 1) (UniProt P08515 1-218 = GST); assay: A/G assays
# T2 construct: also called K559
# [3] = target: GST-MINT3 PDZ domain fusion protein (human MINT3 AA11-52; PDZ domain 1 of 1) (human, UniProt P08515 1-218 = GST); assay: A/G assays
# [4] = target: GST-TIAM1 PDZ domain fusion protein (T-lymphoma invasion and metastasis inducing protein 1 AA1001-1088); PDZ 1 … (UniProt P08515 1-218 = GST); assay: A/G assays
# [5] = target: T3, GST-AF6 PDZ domain fusion protein (af-6 protein AA985-1077; PDZ domain 1 of 1) (UniProt P08515 1-218 = GST); assay: A/G assays
# [6] = target: GST-NOS1 PDZ domain fusion protein (human neuronal nitric oxide synthase; PDZ domain 1 of 1) (human, UniProt P08515 1-218 = GST); assay: A/G assays
# [7] = target: T4, GST-TAX33 PDZ domain fusion protein (tax interaction protein 33 AA73-162; PDZ domain 1 of 1) (UniProt P08515 1-218 = GST); assay: A/G assays
# T4 construct: also called TX33
# [8] = target: GST-LIM PDZ domain fusion protein (Human LIM protein AA29-112; PDZ domain 1 of 1) (human, UniProt P08515 1-218 = GST); assay: A/G assays
# [9] = target: GST-LIMK2 PDZ domain fusion protein (human LIM domain kinase 2 AA185-275; PDZ domain 1 of 1) (human, UniProt P08515 1-218 = GST); assay: A/G assays
# [10] = target: T5, GST-CBP PDZ domain fusion protein (Cytohesin binding protein HE AA85-175; PDZ domain 1 of 1) (UniProt P08515 1-218 = GST); assay: A/G assays
# T5 construct: also called Prot
# [11] = target: GST-prIL16 PDZ domain fusion protein (putative interleukin 16 precursor AA170-383; PDZ domains 1-2 of 2) (UniProt P08515 1-218 = GST); assay: A/G assays
# [12] = target: T6, GST-CASK PDZ domain fusion protein (CASK AA495-584; PDZ domain 1 of 1) (mouse, UniProt P08515 1-218 = GST); assay: A/G assays
# T6 construct: also called mCASK
# [13] = target: T7, GST-KIAA0303 PDZ domain fusion protein (KIAA0303 AA652-742; PDZ domain 1 of 1) (UniProt P08515 1-218 = GST); assay: A/G assays
# T7 construct: also called K303
# [14] = target: T8, GST-TAX40 PDZ domain fusion protein (human tax interaction protein 40 AA35-137; PDZ domain 1 of 1) (human, UniProt P08515 1-218 = GST); assay: A/G assays
# T8 construct: also called TX 40
# [15] = target: T9, GST-PTN-4 PDZ domain fusion protein (protein-tyrosine phosphatase meg1 AA774-862; PDZ domain 1 of 1) (UniProt P08515 1-218 = GST); assay: A and G assays
# [16] = target: T10, GST-NeDLG PDZ domain fusion protein (presynaptic protein sao102, neuroendocrine-dlg; PDZ domains 1-2 of 3) (UniProt P08515 1-218 = GST); assay: A and G assays
# T10 construct: also called NeDLG1
# [17] = target: T11, GST-RGS12 PDZ domain fusion protein (human regulator of G-protein signalling 12 AA35-103; PDZ domain 1 of 1) (human, UniProt P08515 1-218 = GST); assay: A and G assays
# T11 construct: also called RSG12
# [18] = target: T12, GST-PSD95 PDZ domain fusion protein (human post-synaptic density protein 95 AA387-724; PDZ domains 1-3 of 3) (human, UniProt P08515 1-218 = GST); assay: A and G assays
# [19] = target: T13, GST-41.8 kD PDZ domain fusion protein (hypothetical 41.8 kD protein AA4-85; PDZ domain 1 of 1) (UniProt P08515 1-218 = GST); assay: A and G assays
# T13 construct: also called hypoth
# [20] = target: T14, GST-SYN1a PDZ domain fusion protein (alpha1-syntrophin AA96-189; PDZ domain 1 of 1) (UniProt P08515 1-218 = GST); assay: G assay
# T14 construct: also called SYN 1 alpha; SYNTR 1 alpha
# [21] = target: T15, GST-MPP2 PDZ domain fusion protein (maguk p55 subfamily member 2 (DLG2) AA185-273; PDZ domain 1 of 1) (UniProt P08515 1-218 = GST); assay: G assay
# T15 construct: also called MMP2
# [22] = target: T16, GST-DVL1 PDZ domain fusion protein (human dishevelled segment polarity protein homolog AA248-340); PDZ domain … (human, UniProt P08515 1-218 = GST); assay: A assay
# [23] = target: T17, GST-TAX2 PDZ domain fusion protein (human tax interaction protein 2 AA54-140; PDZ domain 1 of 1) (human, UniProt P08515 1-218 = GST); assay: A assay
# T17 construct: also called TX 2
# [24] = target: T18, GST-TAX43 PDZ domain fusion protein (human tax interaction protein 43 AA15-85; PDZ domain 1 of 1) (human, UniProt P08515 1-218 = GST); assay: A assay
# T18 construct: also called TX 43
# [25] = target: T19, GST-MPP1 PDZ domain fusion protein (55 Kd erythrocyte membrane protein AA101-186; PDZ domain 1 of 1) (UniProt P08515 1-218 = GST); assay: A assay
# [26] = target: T9, GST-PTN-4 PDZ domain fusion protein …; assay: A/G assays
# [27] = target: T16, GST-DVL1 PDZ domain fusion protein …; assay: A/G assays
# [28] = target: T14, GST-SYN1a PDZ domain fusion protein …; assay: A/G assays
# [29] = target: T17, GST-TAX2 PDZ domain fusion protein …; assay: A/G assays
# [30] = target: T18, GST-TAX43 PDZ domain fusion protein …; assay: A/G assays
# [31] = target: T11, GST-RGS12 PDZ domain fusion protein …; assay: A/G assays
# [32] = target: T19, GST-MPP1 PDZ domain fusion protein (55 …); assay: A/G assays
# [33] = target: T10, GST-NeDLG PDZ domain fusion protein …; assay: G assay
# [34] = target: T12, GST-PSD95 PDZ domain fusion protein …; assay: G assay
# [35] = target: T3, GST-AF6 PDZ domain fusion protein (af-6 …); assay: A assay
# [36] = target: T15, GST-MPP2 PDZ domain fusion protein …; assay: A assay
# [37] = target: T13, GST-41.8 kD PDZ domain fusion protein …; assay: A assay
# T9 sequence (P08515 1-218, tags or fused parts left off): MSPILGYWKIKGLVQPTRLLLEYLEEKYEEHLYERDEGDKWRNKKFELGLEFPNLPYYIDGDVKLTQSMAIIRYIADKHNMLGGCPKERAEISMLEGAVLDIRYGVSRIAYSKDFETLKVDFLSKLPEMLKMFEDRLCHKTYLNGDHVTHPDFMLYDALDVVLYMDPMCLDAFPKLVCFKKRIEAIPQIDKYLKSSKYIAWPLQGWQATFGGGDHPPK
# T11 sequence (P08515 1-218, tags or fused parts left off): as above
# T4 sequence (P08515 1-218, tags or fused parts left off): as above
# T18 sequence (P08515 1-218, tags or fused parts left off): as above
# T12 sequence (P08515 1-218, tags or fused parts left off): as above
# T10 sequence (P08515 1-218, tags or fused parts left off): as above
# T17 sequence (P08515 1-218, tags or fused parts left off): as above
# T2 sequence (P08515 1-218, tags or fused parts left off): as above
# T8 sequence (P08515 1-218, tags or fused parts left off): as above
# T6 sequence (P08515 1-218, tags or fused parts left off): as above
# Sequence of GST-LIMK2 PDZ domain fusion protein (human LIM domain kinase 2 AA185-275; PDZ domain 1 of 1) (P08515 1-218, tags or fused parts left off): as above
# T13 sequence (P08515 1-218, tags or fused parts left off): as above
# T5 sequence (P08515 1-218, tags or fused parts left off): as above
# T15 sequence (P08515 1-218, tags or fused parts left off): as above
# T1 sequence (P08515 1-218, tags or fused parts left off): as above
# Sequence of GST-prIL16 PDZ domain fusion protein (putative interleukin 16 precursor AA170-383; PDZ domains 1-2 of 2) (P08515 1-218, tags or fused parts left off): as above
# T16 sequence (P08515 1-218, tags or fused parts left off): as above
# Sequence of GST-LIM PDZ domain fusion protein (Human LIM protein AA29-112; PDZ domain 1 of 1) (P08515 1-218, tags or fused parts left off): as above
# Sequence of GST-TIAM1 PDZ domain fusion protein (T-lymphoma invasion and metastasis inducing protein 1 AA1001-1088); PDZ 1 … (P08515 1-218, tags or fused parts left off): as above
# Sequence of GST-NOS1 PDZ domain fusion protein (human neuronal nitric oxide synthase; PDZ domain 1 of 1) (P08515 1-218, tags or fused parts left off): as above
# T7 sequence (P08515 1-218, tags or fused parts left off): as above
Binder,binding result [1],binding result [2],binding result [3],binding result [4],binding result [6],binding result [7],binding result [8],binding result [9],binding result [10],binding result [11],binding result [12],binding result [13],binding result [14],also measured
"Biotin-LNSCSNRRVYKKMPSIESDV [NMDA C-terminal PL peptide AA34.2L, biotinylated]",no binding,no binding,no binding,no binding,no binding,no binding,no binding,no binding,no binding,no binding,no binding,no binding,no binding,binding result [5]: no binding; binding result [15]: binds; binding result [16]: binds; binding result [17]: binds; binding result [18]: binds; binding result [19]: binds; binding result [20]: binds; binding result [21]: binds; binding result [22]: binds; binding result [23]: binds; binding result [24]: binds; binding result [25]: binds
"Biotin-QGDPALQDAGDSSRKEYFI (also called GC) [Glycophorin C C-terminal PL peptide AA37L, biotinylated]",no binding,no binding,no binding,no binding,no binding,no binding,no binding,no binding,no binding,no binding,no binding,no binding,no binding,binding result [26]: no binding; binding result [27]: no binding; binding result [28]: no binding; binding result [29]: no binding; binding result [30]: no binding; binding result [31]: no binding; binding result [32]: no binding; binding result [33]: binds; binding result [34]: binds; binding result [35]: binds; binding result [36]: binds; binding result [37]: binds
